Assay results published in the supplement of paper PMC10126150.
± gives the standard deviation of the averaged measurements.

Tested on: ATP
Assay: switch fluorescence ratio, 500 uM ATP over buffer (Cy3 cluster intensity, sum of 5 cycles each) (fold (ratio)); higher = stronger signal-on switching upon ATP binding; sequences stand for … in TCGTCGGCAGCGTCAGATGTGTATAAGAGACAGTTTTTTTTTTTTTTTTTTTTTTTTT…TC
Conditions: aptamer strand: ATP DNA aptamer (quencher-CACCTGGGGGAGTATTGCGGAGGAAGG + anchor), 100 nM annealed; ATP concentration: 500 uM
How it was run: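 The fluorescence ratio divides summed target-cycle Cy3 intensity by summed buffer-cycle Cy3 intensity for each cluster and is averaged per switch-domain sequence. Cy3-labelled switching-strand clusters on a modified Illumina MiSeq flow-cell were annealed to 100 nM quencher-labelled ATP aptamer, then imaged in selection buffer and again after 15 min with 500 uM ATP at 22 °C. Five such cycles were run, with NaOH stripping and re-annealing between them, and clusters outside 100-1000 RFU were excluded.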
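Also: ATP exposure 15 min at 22 °C before imaging.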

| Sequence | switch fluorescence ratio |
| --- | --- |
| TTTCTTGCGG | 1.012 ± 0.0019 |
| TTTCTTGTCT | 1.01 ± 0.035 |
| TTTCTTTCTT | 1.05 ± 0.083 |
| TTTCTTTGGG | 0.998 ± 0.043 |
| TTTCTTTGGT | 1.016 ± 0.0075 |
| TTTGAAACCA | 1.01 ± 0.024 |
| TTTGAAATAT | 1.01 ± 0.013 |
| TTTGAAGCAA | 4.2 ± 3.2 |
| TTTGAAGCCG | 0.989 ± 0.024 |
| TTTGAAGCTA | 2.19 ± 1.9 |
| TTTGAATATT | 0.991 ± 0.036 |
| TTTGACAGGG | 1.02 ± 0.014 |
| TTTGACAGTA | 1.07 ± 0.061 |
| TTTGACCGGA | 1.02 ± 0.072 |
| TTTGACGATT | 1 ± 0.049 |
| TTTGACGCGT | 1.02 ± 0.016 |
| TTTGACGGGT | 1.02 ± 0.029 |
| TTTGACGTGC | 1.02 ± 0.033 |
| TTTGACTAAG | 1.06 ± 0.099 |
| TTTGAGAATT | 1.01 ± 0.032 |
| TTTGAGAGGT | 1.05 ± 0.03 |
| TTTGAGATAG | 1.02 ± 0.012 |
| TTTGAGATGT | 1.04 ± 0.0048 |
| TTTGAGCCAC | 1.05 ± 0.0095 |
| TTTGAGGACA | 1.01 ± 0.012 |
| TTTGAGGAGC | 1.035 ± 0.0028 |

| Sequence | switch fluorescence ratio |
| --- | --- |
| TTTGAGGGCG | 1.01 ± 0.066 |
| TTTGAGGGCT | 1.006 ± 0.0023 |
| TTTGAGGTAG | 0.98 ± 0.019 |
| TTTGAGGTGG | 1.03 ± 0.043 |
| TTTGAGTCAT | 0.9713 ± 0.0092 |
| TTTGAGTTTG | 1.009 ± 0.0056 |
| TTTGATAATT | 1.07 ± 0.15 |
| TTTGATACAG | 1.012 ± 0.0071 |
| TTTGATATTG | 0.994 ± 0.038 |
| TTTGATCGCT | 1.28 ± 0.46 |
| TTTGATTAAT | 0.987 ± 0.011 |
| TTTGATTCGG | 0.983 ± 0.017 |
| TTTGATTGGA | 1.02 ± 0.011 |
| TTTGATTGGG | 1.01 ± 0.037 |
| TTTGATTGTT | 0.97 ± 0.043 |
| TTTGCAAAAA | 1.06 ± 0.082 |
| TTTGCAAGGA | 1.02 ± 0.045 |
| TTTGCAATG | 2.22 ± 1.6 |
| TTTGCAGTTC | 1.3 ± 0.32 |
| TTTGCATTCT | 1.004 ± 0.0078 |
| TTTGCCAAAA | 1.14 ± 0.23 |
| TTTGCCGAGG | 1.01 ± 0.015 |
| TTTGCCGTTC | 1.01 ± 0.042 |
| TTTGCCTTGC | 1.11 ± 0.067 |
| TTTGCCTTGG | 1.02 ± 0.018 |
| TTTGCGACGT | 1.02 ± 0.025 |

| Sequence | switch fluorescence ratio |
| --- | --- |
| TTTGCGACTG | 1.03 ± 0.015 |
| TTTGCGGGAC | 1.57 ± 0.47 |
| TTTGCGGGGG | 1.01 ± 0.035 |
| TTTGCGGGGT | 1.03 ± 0.034 |
| TTTGCGTTAC | 1.58 ± 0.053 |
| TTTGCTACGT | 1.01 ± 0.051 |
| TTTGCTAG | 1.013 ± 0.0095 |
| TTTGCTATAG | 1.23 ± 0.28 |
| TTTGCTGTAT | 0.9747 ± 0.0032 |
| TTTGCTTAAT | 1.02 ± 0.044 |
| TTTGCTTTCT | 1.02 ± 0.023 |
| TTTGCTTTTC | 0.994 ± 0.05 |
| TTTGCTTTTT | 1 ± 0.036 |
| TTTGGAAAGG | 0.977 ± 0.046 |
| TTTGGAAAGT | 0.991 ± 0.025 |
| TTTGGAATCG | 1.01 ± 0.046 |
| TTTGGACAGG | 1.004 ± 0.0071 |
| TTTGGAGAAA | 0.989 ± 0.022 |
| TTTGGAGGCT | 1.02 ± 0.063 |
| TTTGGAGTTT | 0.987 ± 0.053 |
| TTTGGATATT | 1.03 ± 0.095 |
| TTTGGATCTG | 1.034 ± 0.0094 |
| TTTGGCAGTC | 1.1 ± 0.13 |
| TTTGGCCGGA | 0.985 ± 0.036 |
| TTTGGGAATA | 1.02 ± 0.02 |
